{"source": "ChEMBL document CHEMBL1156468", "about": "“Crystal structures of Saccharomyces cerevisiae N-myristoyltransferase with bound myristoyl-CoA and inhibitors reveal the functional roles of the N-terminal region” (J Biol Chem, 2007)", "proteins": {"B1": {"name": "Glycylpeptide N-tetradecanoyltransferase (Saccharomyces cerevisiae S288c), P14743 D23K (protein)", "chain": "MSEEDKAKKLENLLKLLQLNNDKTSKFTQEQKKAMKDHKFWRTQPVKDFDEKVVEEGPIDKPKTPEDISDKPLPLLSSFEWCSIDVDNKKQLEDVFVLLNENYVEDRDAGFRFNYTKEFFNWALKSPGWKKDWHIGVRVKETQKLVAFISAIPVTLGVRGKQVPSVEINFLCVHKQLRSKRLTPVLIKEITRRVNKCDIWHALYTAGIVLPAPVSTCRYTHRPLNWKKLYEVDFTGLPDGHTEEDMIAENALPAKTKTAGLRKLKKEDIDQVFELFKRYQSRFELIQIFTKEEFEHNFIGEESLPLDKQVIFSYVVEQPDGKITDFFSFYSLPFTILNNTKYKDLGIGYLYYYATDADFQFKDRFDPKATKALKTRLCELIYDACILAKNANMDVFNALTSQDNTLFLDDLKFGPGDGFLNFYLFNYRAKPITGGLNPDNSNDIKRRSNVGVVML"}, "B2": {"name": "Glycylpeptide N-tetradecanoyltransferase (Saccharomyces cerevisiae S288c), P14743 D23A (protein)", "chain": "B1 chain with K23A"}, "B3": {"name": "Glycylpeptide N-tetradecanoyltransferase (Saccharomyces cerevisiae S288c), P14743 D108A (protein)", "chain": "B1 chain with K23D, D108A"}, "B4": {"name": "Glycylpeptide N-tetradecanoyltransferase (Saccharomyces cerevisiae S288c), P14743 D106K (protein)", "chain": "B1 chain with K23D, D106K"}, "B5": {"name": "Glycylpeptide N-tetradecanoyltransferase (Saccharomyces cerevisiae S288c), P14743 T24D (protein)", "chain": "B1 chain with K23D, T24D"}, "B6": {"name": "Glycylpeptide N-tetradecanoyltransferase (Saccharomyces cerevisiae S288c), P14743 D106A,D108A (protein)", "chain": "B1 chain with K23D, D106A, D108A"}, "B7": {"name": "Glycylpeptide N-tetradecanoyltransferase (Saccharomyces cerevisiae S288c), P14743 D108K (protein)", "chain": "B1 chain with K23D, D108K"}}, "key": {"[1]": {"substrate": "CC(C)C[C@H](NC(=O)CN)C(=O)N[C@@H](Cc1ccccc1)C(=O)N[C@@H](C)C(=O)N[C@@H](CO)C(=O)N[C@@H](CCCCN)C(=O)N[C@@H](CC(C)C)C(=O)N[C@@H](Cc1ccccc1)C(=O)O", "assay": "Activity of Saccharomyces cerevisiae NMT D23K mutant assessed as production of coenzyme A after 1 hr"}, "[2]": {"substrate": "CC(C)C[C@H](NC(=O)CN)C(=O)N[C@@H](Cc1ccccc1)C(=O)N[C@@H](C)C(=O)N[C@@H](CO)C(=O)N[C@@H](CCCCN)C(=O)N[C@@H](CC(C)C)C(=O)N[C@@H](Cc1ccccc1)C(=O)O", "assay": "Ratio of kcat to Km for Saccharomyces cerevisiae NMT D23K mutant"}, "[3]": {"substrate": "CC(C)C[C@H](NC(=O)CN)C(=O)N[C@@H](Cc1ccccc1)C(=O)N[C@@H](C)C(=O)N[C@@H](CO)C(=O)N[C@@H](CCCCN)C(=O)N[C@@H](CC(C)C)C(=O)N[C@@H](Cc1ccccc1)C(=O)O", "assay": "Activity of Saccharomyces cerevisiae NMT D23A mutant assessed as production of coenzyme A after 1 hr"}, "[4]": {"substrate": "CC(C)C[C@H](NC(=O)CN)C(=O)N[C@@H](Cc1ccccc1)C(=O)N[C@@H](C)C(=O)N[C@@H](CO)C(=O)N[C@@H](CCCCN)C(=O)N[C@@H](CC(C)C)C(=O)N[C@@H](Cc1ccccc1)C(=O)O", "assay": "Ratio of kcat to Km for Saccharomyces cerevisiae NMT D23A mutant"}, "[5]": {"substrate": "CC(C)C[C@H](NC(=O)CN)C(=O)N[C@@H](Cc1ccccc1)C(=O)N[C@@H](C)C(=O)N[C@@H](CO)C(=O)N[C@@H](CCCCN)C(=O)N[C@@H](CC(C)C)C(=O)N[C@@H](Cc1ccccc1)C(=O)O", "assay": "Ratio of kcat to Km for Saccharomyces cerevisiae NMT D108A mutant"}, "[6]": {"substrate": "CC(C)C[C@H](NC(=O)CN)C(=O)N[C@@H](Cc1ccccc1)C(=O)N[C@@H](C)C(=O)N[C@@H](CO)C(=O)N[C@@H](CCCCN)C(=O)N[C@@H](CC(C)C)C(=O)N[C@@H](Cc1ccccc1)C(=O)O", "assay": "Activity of Saccharomyces cerevisiae NMT D108A mutant assessed as production of coenzyme A after 1 hr"}, "[7]": {"substrate": "CC(C)C[C@H](NC(=O)CN)C(=O)N[C@@H](Cc1ccccc1)C(=O)N[C@@H](C)C(=O)N[C@@H](CO)C(=O)N[C@@H](CCCCN)C(=O)N[C@@H](CC(C)C)C(=O)N[C@@H](Cc1ccccc1)C(=O)O", "assay": "Activity of Saccharomyces cerevisiae NMT D106K mutant assessed as production of coenzyme A after 1 hr"}, "[8]": {"substrate": "CC(C)C[C@H](NC(=O)CN)C(=O)N[C@@H](Cc1ccccc1)C(=O)N[C@@H](C)C(=O)N[C@@H](CO)C(=O)N[C@@H](CCCCN)C(=O)N[C@@H](CC(C)C)C(=O)N[C@@H](Cc1ccccc1)C(=O)O", "assay": "Ratio of kcat to Km for Saccharomyces cerevisiae NMT D106K mutant"}, "[9]": {"substrate": "CC(C)C[C@H](NC(=O)CN)C(=O)N[C@@H](Cc1ccccc1)C(=O)N[C@@H](C)C(=O)N[C@@H](CO)C(=O)N[C@@H](CCCCN)C(=O)N[C@@H](CC(C)C)C(=O)N[C@@H](Cc1ccccc1)C(=O)O", "assay": "Activity of Saccharomyces cerevisiae NMT T24D mutant assessed as production of coenzyme A after 1 hr"}, "[10]": {"substrate": "CC(C)C[C@H](NC(=O)CN)C(=O)N[C@@H](Cc1ccccc1)C(=O)N[C@@H](C)C(=O)N[C@@H](CO)C(=O)N[C@@H](CCCCN)C(=O)N[C@@H](CC(C)C)C(=O)N[C@@H](Cc1ccccc1)C(=O)O", "assay": "Ratio of kcat to Km for Saccharomyces cerevisiae NMT T24D mutant"}, "[11]": {"substrate": "CC(C)C[C@H](NC(=O)CN)C(=O)N[C@@H](Cc1ccccc1)C(=O)N[C@@H](C)C(=O)N[C@@H](CO)C(=O)N[C@@H](CCCCN)C(=O)N[C@@H](CC(C)C)C(=O)N[C@@H](Cc1ccccc1)C(=O)O", "assay": "Activity of Saccharomyces cerevisiae NMT D106A/D108A mutant assessed as production of coenzyme A after 1 hr"}, "[12]": {"substrate": "CC(C)C[C@H](NC(=O)CN)C(=O)N[C@@H](Cc1ccccc1)C(=O)N[C@@H](C)C(=O)N[C@@H](CO)C(=O)N[C@@H](CCCCN)C(=O)N[C@@H](CC(C)C)C(=O)N[C@@H](Cc1ccccc1)C(=O)O", "assay": "Ratio of kcat to Km for Saccharomyces cerevisiae NMT D106A/D108A mutant"}, "[13]": {"substrate": "CC(C)C[C@H](NC(=O)CN)C(=O)N[C@@H](Cc1ccccc1)C(=O)N[C@@H](C)C(=O)N[C@@H](CO)C(=O)N[C@@H](CCCCN)C(=O)N[C@@H](CC(C)C)C(=O)N[C@@H](Cc1ccccc1)C(=O)O", "assay": "Activity of Saccharomyces cerevisiae NMT D108K mutant assessed as production of coenzyme A after 1 hr"}, "[14]": {"substrate": "CC(C)C[C@H](NC(=O)CN)C(=O)N[C@@H](Cc1ccccc1)C(=O)N[C@@H](C)C(=O)N[C@@H](CO)C(=O)N[C@@H](CCCCN)C(=O)N[C@@H](CC(C)C)C(=O)N[C@@H](Cc1ccccc1)C(=O)O", "assay": "Ratio of kcat to Km for Saccharomyces cerevisiae NMT D108K mutant"}}, "note": "Where a chain is given by its changes, count along the chain named. Numbers in names are those of the source.", "data": [{"protein": "B1", "values": [{"measurement": "Km", "setting": "[1]", "value": 50.2, "unit": "µM"}, {"measurement": "kcat", "setting": "[1]", "value": 3.64, "unit": "s⁻¹"}, {"measurement": "kcat/Km", "setting": "[2]", "value": 7.26, "unit": "×10⁴ /M/s"}]}, {"protein": "B2", "values": [{"measurement": "Km", "setting": "[3]", "value": 21.4, "unit": "µM"}, {"measurement": "kcat", "setting": "[3]", "value": 2.71, "unit": "s⁻¹"}, {"measurement": "kcat/Km", "setting": "[4]", "value": 1.27, "unit": "×10⁵ /M/s"}]}, {"protein": "B3", "values": [{"measurement": "kcat/Km", "setting": "[5]", "value": 2.45, "unit": "×10⁵ /M/s"}, {"measurement": "Km", "setting": "[6]", "value": 7.89, "unit": "µM"}, {"measurement": "kcat", "setting": "[6]", "value": 1.94, "unit": "s⁻¹"}]}, {"protein": "B4", "values": [{"measurement": "Km", "setting": "[7]", "value": 30.6, "unit": "µM"}, {"measurement": "kcat", "setting": "[7]", "value": 2.65, "unit": "s⁻¹"}, {"measurement": "kcat/Km", "setting": "[8]", "value": 8.65, "unit": "×10⁴ /M/s"}]}, {"protein": "B5", "values": [{"measurement": "Km", "setting": "[9]", "value": 41.6, "unit": "µM"}, {"measurement": "kcat", "setting": "[9]", "value": 2.77, "unit": "s⁻¹"}, {"measurement": "kcat/Km", "setting": "[10]", "value": 6.67, "unit": "×10⁴ /M/s"}]}, {"protein": "B6", "values": [{"measurement": "Km", "setting": "[11]", "value": 38.5, "unit": "µM"}, {"measurement": "kcat", "setting": "[11]", "value": 2.55, "unit": "s⁻¹"}, {"measurement": "kcat/Km", "setting": "[12]", "value": 6.62, "unit": "×10⁴ /M/s"}]}, {"protein": "B7", "values": [{"measurement": "Km", "setting": "[13]", "value": 13.9, "unit": "µM"}, {"measurement": "kcat", "setting": "[13]", "value": 1.94, "unit": "s⁻¹"}, {"measurement": "kcat/Km", "setting": "[14]", "value": 1.4, "unit": "×10⁵ /M/s"}]}]}
